T1: GLUT4 (rat, UniProt P19357 1-509)
T1 sequence (looked up): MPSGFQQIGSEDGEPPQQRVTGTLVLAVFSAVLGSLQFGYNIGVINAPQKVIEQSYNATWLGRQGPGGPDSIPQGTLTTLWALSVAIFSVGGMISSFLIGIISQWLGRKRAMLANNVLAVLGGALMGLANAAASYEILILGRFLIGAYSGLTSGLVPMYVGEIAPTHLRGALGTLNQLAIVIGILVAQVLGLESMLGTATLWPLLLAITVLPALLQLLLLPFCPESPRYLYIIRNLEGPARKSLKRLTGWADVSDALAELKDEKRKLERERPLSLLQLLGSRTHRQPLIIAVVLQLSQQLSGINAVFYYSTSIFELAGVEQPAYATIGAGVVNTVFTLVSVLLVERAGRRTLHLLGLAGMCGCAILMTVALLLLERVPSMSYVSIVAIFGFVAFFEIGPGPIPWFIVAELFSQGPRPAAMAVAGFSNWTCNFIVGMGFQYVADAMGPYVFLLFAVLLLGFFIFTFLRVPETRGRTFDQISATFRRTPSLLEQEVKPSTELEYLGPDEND


Legend:
Assay in all cases: cell-based or functional assay
[1] = target: Leptin Receptor, long form (UniProt P48357)
[2] = target: Leptin Receptor, long form, P48357
human insulin receptor = human insulin receptor (human, UniProt P06213 28-1382)
[3] = target: mutated form of the insulin receptor, deletion of residues 713 to 740 (human, UniProt P06213 28-1382)
GLUT4 = target: T1, GLUT4

Leptin Receptor, long form, P48357, sequence (P48357 22-1165): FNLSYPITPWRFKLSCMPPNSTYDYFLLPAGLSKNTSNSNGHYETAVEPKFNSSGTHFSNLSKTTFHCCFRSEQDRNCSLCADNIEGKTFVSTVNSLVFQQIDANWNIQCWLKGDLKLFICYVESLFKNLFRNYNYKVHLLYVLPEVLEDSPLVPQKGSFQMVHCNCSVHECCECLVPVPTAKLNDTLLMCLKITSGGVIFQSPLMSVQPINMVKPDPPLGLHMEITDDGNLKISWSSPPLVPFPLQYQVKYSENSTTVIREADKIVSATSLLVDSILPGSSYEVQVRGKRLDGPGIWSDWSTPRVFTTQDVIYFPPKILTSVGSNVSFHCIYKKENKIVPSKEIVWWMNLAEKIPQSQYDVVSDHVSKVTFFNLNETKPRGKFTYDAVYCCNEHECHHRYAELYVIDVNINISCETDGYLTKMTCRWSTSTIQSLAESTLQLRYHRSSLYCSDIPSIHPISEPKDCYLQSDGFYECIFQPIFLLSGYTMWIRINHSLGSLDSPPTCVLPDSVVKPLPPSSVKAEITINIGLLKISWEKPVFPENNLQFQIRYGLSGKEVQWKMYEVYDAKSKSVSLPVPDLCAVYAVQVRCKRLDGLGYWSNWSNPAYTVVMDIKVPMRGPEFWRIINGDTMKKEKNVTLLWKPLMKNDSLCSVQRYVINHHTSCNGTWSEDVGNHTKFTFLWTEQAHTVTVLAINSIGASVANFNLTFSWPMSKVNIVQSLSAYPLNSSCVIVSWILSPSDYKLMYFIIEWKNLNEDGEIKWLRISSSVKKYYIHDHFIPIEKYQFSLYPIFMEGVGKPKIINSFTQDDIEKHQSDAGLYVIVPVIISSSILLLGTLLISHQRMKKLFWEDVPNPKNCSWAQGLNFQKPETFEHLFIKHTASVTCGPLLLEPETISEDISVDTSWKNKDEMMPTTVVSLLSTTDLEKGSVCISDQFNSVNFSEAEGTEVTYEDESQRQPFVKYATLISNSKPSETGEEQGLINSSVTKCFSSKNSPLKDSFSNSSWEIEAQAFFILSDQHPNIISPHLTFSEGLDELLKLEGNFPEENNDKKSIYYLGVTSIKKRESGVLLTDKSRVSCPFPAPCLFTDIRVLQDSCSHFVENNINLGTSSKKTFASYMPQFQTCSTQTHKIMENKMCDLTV
Leptin Receptor, long form, sequence (P48357 22-1165): as above

Molecule | percent internalized receptor at 5 min with 10 µM peptide (125I-insulin, acid wash) (human insulin receptor) | percent internalized receptor at 15 min with 10 µM peptide (125I-insulin, acid wash) (human insulin receptor) | percent internalized receptor at 30 min with 10 µM peptide (125I-insulin, acid wash) (human insulin receptor) | percent internalized receptor at 60 min with 10 µM peptide (125I-insulin, acid wash) (human insulin receptor) | percent internalized receptor at 5 min with 10 µM peptide (125I-insulin, acid wash) [3] | percent internalized receptor at 15 min with 10 µM peptide (125I-insulin, acid wash) [3] | percent internalized receptor at 30 min with 10 µM peptide (125I-insulin, acid wash) [3] | percent internalized receptor at 60 min with 10 µM peptide (125I-insulin, acid wash) [3] | further results
Leptin (from UniProt P41159 22-167) (ligand) | – | – | – | – | – | – | – | – | activation (phosphorylation) of JAK2 with 1 ng/ml of OB alone, quantified western blot (arbitrary units) [1]: 2
KKENKIVPSKEIVWWMNLAEKIP [Leptin Receptor derived peptide] | – | – | – | – | – | – | – | – | activation (phosphorylation) of JAK2 with 1 ng/ml of OB and 30 µM LRp together, quantified western blot (arbitrary units) [2]: 16; activation (phosphorylation) of JAK2 with 30 µM LRp alone, quantified western blot (arbitrary units) [2]: 8
GNEQSFRVDLRTLLRYAGGGNEQSFRVDLRTLLRYA [DS-A85] | 5% | 9% | 14% | 17% | -1% | 0% | 2% | 1% | –
KTDSQILKELEESSFRKTFEDYLH [Insulin receptor derived peptide] | 6% | 2% | 6% | 2% | 5% | -2% | 0% | 2% | enhancement of glucose uptake in rat adipose cells, insulin + 10 µM pepIR (GLUT4): 12 fold
TWLGRQGPEGPSSIPPGTLTTLW [GLUT4pep] | – | – | – | – | – | – | – | – | enhancement of glucose uptake in rat adipose cells, 10 nM insulin + GLUT4pep (GLUT4): 24 fold

— patent US20020160013A1 (RECEPTRON, published 2002)
